Earlier results in patent publication US20200031943A1 (priority 2017, published 2020).
Read-outs that look alike come from different tables or passages of the source.

Conditions: for percentage of patients reported as developing influenza / upper respiratory infections (percentage of patients): SLE patients; for percentage of patients reported as developing influenza: placebo 2.0%; for upper respiratory infections (percentage of patients): placebo 28.7%
[1] = 300 mg intravenous every 4 weeks for 48 weeks
[2] = 1,000 mg intravenous every 4 weeks for 48 weeks

Substance: anifrolumab
- percentage of patients reported as developing influenza [1]: 6.1%
- upper respiratory infections (percentage of patients) [1]: 36.4%
- incidence of serious adverse events (300 mg or 1,000 mg intravenous every 4 weeks for 48 weeks vs placebo): did not increase the incidence of serious adverse events
- percentage of patients reported as developing influenza [2]: 7.6%
- upper respiratory infections (percentage of patients) [2]: 41.9%
- frequency of herpes zoster and influenza infections (anifrolumab-treatment group vs placebo): slightly more frequent
